According to article PMC10397247:
Where two headings read alike, the source gives them in different places. Values belong to the binder of their own block, whether it stands above or below them.

Key:
[1] = target: T1, P6A-bH; assay: two-hybrid library CCNG1;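 note: natural log of median RNA to DNA barcode read ratio; higher means stronger binding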
T1 chain: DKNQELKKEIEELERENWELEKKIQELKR

[2] = target: T2, P7A-bH; assay: two-hybrid library CCNG1;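 note: natural log of median RNA to DNA barcode read ratio; higher means stronger binding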
T2 chain: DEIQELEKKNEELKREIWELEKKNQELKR

[3] = target: T3, P8A-bH; assay: two-hybrid library CCNG1;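 note: natural log of median RNA to DNA barcode read ratio; higher means stronger binding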
T3 chain: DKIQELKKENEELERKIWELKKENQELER

[4] = target: T4, P9A-bH; assay: two-hybrid library CCNG1;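 note: natural log of median RNA to DNA barcode read ratio; higher means stronger binding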
T4 chain: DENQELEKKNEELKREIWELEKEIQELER

[5] = target: T5, P5A-bH; assay: two-hybrid library CCNG1;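 note: natural log of median RNA to DNA barcode read ratio; higher means stronger binding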
T5 chain: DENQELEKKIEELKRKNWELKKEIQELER

[6] = target: T6, P6SC1; assay: two-hybrid library CC1; conditions: mean of both orientations;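 note: natural log of median RNA to DNA barcode read ratio; higher means stronger binding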
T6 chain: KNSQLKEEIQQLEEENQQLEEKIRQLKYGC

[7] = target: T7, P9; assay: two-hybrid library CC1; conditions: mean of both orientations
T7 chain: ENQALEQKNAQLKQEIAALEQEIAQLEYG

[8] = target: T8, P5SC1; assay: two-hybrid library CC1; conditions: mean of both orientations
T8 chain: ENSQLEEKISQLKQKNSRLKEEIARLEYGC

[9] = target: T9, P5mS; assay: two-hybrid library CC1; conditions: mean of both orientations
T9 chain: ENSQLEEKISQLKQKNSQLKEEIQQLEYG

[10] = target: T10, P6SC2; assay: two-hybrid library CC1; conditions: mean of both orientations
T10 chain: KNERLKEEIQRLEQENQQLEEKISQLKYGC

[11] = target: T11, P8mS; assay: two-hybrid library CC1; conditions: mean of both orientations
T11 chain: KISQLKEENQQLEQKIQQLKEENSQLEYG

[12] = target: T12, P5; assay: two-hybrid library CC1
T12 chain: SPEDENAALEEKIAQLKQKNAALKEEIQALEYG

[13] = target: T13, P7; assay: two-hybrid library CC1; conditions: mean of both orientations
T13 chain: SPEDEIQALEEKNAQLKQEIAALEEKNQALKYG

[14] = target: T14, P6; assay: two-hybrid library CC1; conditions: mean of both orientations
T14 chain: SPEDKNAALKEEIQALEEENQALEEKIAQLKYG

[15] = target: T15, P5SC2; assay: two-hybrid library CC1; conditions: mean of both orientations
T15 chain: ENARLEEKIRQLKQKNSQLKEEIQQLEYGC

[16] = target: T16, P8; assay: two-hybrid library CC1; conditions: mean of both orientations
T16 chain: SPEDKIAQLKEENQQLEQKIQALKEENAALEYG

[17] = target: T17, P6mS; assay: two-hybrid library CC1; conditions: mean of both orientations
T17 chain: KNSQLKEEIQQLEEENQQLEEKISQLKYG

[18] = target: T18, P7mS; assay: two-hybrid library CC1; conditions: mean of both orientations
T18 chain: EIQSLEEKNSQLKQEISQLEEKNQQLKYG

[19] = target: T19, 4H3915-AA; assay: two-hybrid library CCmax; conditions: mean of both orientations
T19 chain: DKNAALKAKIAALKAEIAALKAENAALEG

[20] = target: T20, 4H2580-AA; assay: two-hybrid library CCmax; conditions: mean of both orientations
T20 chain: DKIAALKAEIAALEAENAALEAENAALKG

[21] = target: T21, 4H2947-AA; assay: two-hybrid library CCmax; conditions: mean of both orientations
T21 chain: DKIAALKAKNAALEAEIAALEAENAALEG

[22] = target: T22, 4H341-AA; assay: two-hybrid library CCmax; conditions: mean of both orientations
T22 chain: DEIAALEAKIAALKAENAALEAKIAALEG

[23] = target: T23, 4H446-AA; assay: two-hybrid library CCmax; conditions: mean of both orientations
T23 chain: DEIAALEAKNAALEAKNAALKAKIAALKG

[24] = target: T24, 4H249-AA; assay: two-hybrid library CCmax; conditions: mean of both orientations
T24 chain: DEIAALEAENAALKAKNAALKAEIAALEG

[25] = target: T25, 4H3974-AA; assay: two-hybrid library CCmax; conditions: mean of both orientations
T25 chain: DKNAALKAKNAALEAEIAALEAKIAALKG

[26] = target: T26, 4H2903-AA; assay: two-hybrid library CCmax; conditions: mean of both orientations
T26 chain: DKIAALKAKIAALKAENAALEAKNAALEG

[27] = target: T27, 4H3629-AA; assay: two-hybrid library CCmax; conditions: mean of both orientations
T27 chain: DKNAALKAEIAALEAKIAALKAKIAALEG

[28] = target: T28, 4H1878-AA; assay: two-hybrid library CCmax
T28 chain: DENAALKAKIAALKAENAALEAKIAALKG

[29] = target: T29, 4H2604-AA; assay: two-hybrid library CCmax; conditions: mean of both orientations
T29 chain: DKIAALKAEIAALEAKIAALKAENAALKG

[30] = target: T30, 4H3449-AA; assay: two-hybrid library CCmax; conditions: mean of both orientations
T30 chain: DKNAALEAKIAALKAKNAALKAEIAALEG

[31] = target: T31, 4H432-AA; assay: two-hybrid library CCmax; conditions: mean of both orientations
T31 chain: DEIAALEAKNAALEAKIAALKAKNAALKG

[32] = target: T32, 4H2621-AA; assay: two-hybrid library CCmax; conditions: mean of both orientations
T32 chain: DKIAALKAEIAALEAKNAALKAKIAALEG

[33] = target: T33, 4H3619-AA; assay: two-hybrid library CCmax; conditions: mean of both orientations
T33 chain: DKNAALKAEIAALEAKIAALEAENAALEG

[34] = target: T34, 4H3049-AA; assay: two-hybrid library CCmax; conditions: mean of both orientations
T34 chain: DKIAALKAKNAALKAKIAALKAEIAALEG

[35] = target: T35, 4H3777-AA; assay: two-hybrid library CCmax; conditions: mean of both orientations
T35 chain: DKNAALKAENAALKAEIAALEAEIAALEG

[36] = target: T36, 4H3094-AA; assay: two-hybrid library CCmax; conditions: mean of both orientations
T36 chain: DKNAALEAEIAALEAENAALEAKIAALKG

[37] = target: T37, 4H324-AA; assay: two-hybrid library CCmax; conditions: mean of both orientations
T37 chain: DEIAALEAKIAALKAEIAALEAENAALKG

[38] = target: T38, 4H2961-AA; assay: two-hybrid library CCmax; conditions: mean of both orientations
T38 chain: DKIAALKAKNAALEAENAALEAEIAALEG

[39] = target: T39, 4H380-AA; assay: two-hybrid library CCmax; conditions: mean of both orientations
T39 chain: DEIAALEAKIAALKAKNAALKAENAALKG

[40] = target: T40, 4H63-AA; assay: two-hybrid library CCmax
T40 chain: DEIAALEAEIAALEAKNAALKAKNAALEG

[41] = target: T41, 4H235-AA; assay: two-hybrid library CCmax; conditions: mean of both orientations
T41 chain: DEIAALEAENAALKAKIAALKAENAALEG

[42] = target: T42, 4H2774-AA; assay: two-hybrid library CCmax; conditions: mean of both orientations
T42 chain: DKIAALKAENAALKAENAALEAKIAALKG

[43] = target: T43, 4H2760-AA; assay: two-hybrid library CCmax; conditions: mean of both orientations
T43 chain: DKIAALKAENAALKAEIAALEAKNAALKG

[44] = target: T44, P4bH1; assay: two-hybrid library CCNG1
T44 chain: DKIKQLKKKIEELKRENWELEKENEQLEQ

[45] = target: T45, 4H491-bN; assay: two-hybrid library CCNG1
T45 chain: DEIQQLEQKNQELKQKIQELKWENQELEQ

[46] = target: T46, 4H3939-AA; assay: two-hybrid library CCmax; conditions: mean of both orientations
T46 chain: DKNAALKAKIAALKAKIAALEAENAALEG

[47] = target: T47, 4H2699-AA; assay: two-hybrid library CCmax; conditions: mean of both orientations
T47 chain: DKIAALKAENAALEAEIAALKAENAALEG

[48] = target: T48, 4H2728-AA; assay: two-hybrid library CCmax; conditions: mean of both orientations
T48 chain: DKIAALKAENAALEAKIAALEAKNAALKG

[49] = target: T49, 4H3595-AA; assay: two-hybrid library CCmax; conditions: mean of both orientations
T49 chain: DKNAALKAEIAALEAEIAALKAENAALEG

[50] = target: T50, 4H3414-AA; assay: two-hybrid library CCmax; conditions: mean of both orientations
T50 chain: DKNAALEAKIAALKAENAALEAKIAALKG

[51] = target: T51, 4H3782-AA; assay: two-hybrid library CCmax; conditions: mean of both orientations
T51 chain: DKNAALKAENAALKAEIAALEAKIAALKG

[52] = target: T52, 4H1913-AA; assay: two-hybrid library CCmax
T52 chain: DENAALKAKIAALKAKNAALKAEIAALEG

[53] = target: T53, 4H483-AA; assay: two-hybrid library CCmax; conditions: mean of both orientations
T53 chain: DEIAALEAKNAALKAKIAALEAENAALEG

[54] = target: T54, 4H464-AA; assay: two-hybrid library CCmax; conditions: mean of both orientations
T54 chain: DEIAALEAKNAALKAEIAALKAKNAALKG

[55] = target: T55, 4H3969-AA; assay: two-hybrid library CCmax; conditions: mean of both orientations
T55 chain: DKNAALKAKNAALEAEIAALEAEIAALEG

[56] = target: T56, 4H3129-AA; assay: two-hybrid library CCmax
T56 chain: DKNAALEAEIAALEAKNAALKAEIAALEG

[57] = target: T57, 4H4038-bN; assay: two-hybrid library CCNG1
T57 chain: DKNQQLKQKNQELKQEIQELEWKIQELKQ

[58] = target: T58, P4A-bH; assay: two-hybrid library CCNG1
T58 chain: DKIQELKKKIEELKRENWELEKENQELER

[59] = target: T59, 4H470-bN; assay: two-hybrid library CCNG1
T59 chain: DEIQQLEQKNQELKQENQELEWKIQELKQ

[60] = target: T60, 4H3907-bN; assay: two-hybrid library CCNG1
T60 chain: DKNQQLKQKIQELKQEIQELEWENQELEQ

[61] = target: T61, 4H3961-bN; assay: two-hybrid library CCNG1
T61 chain: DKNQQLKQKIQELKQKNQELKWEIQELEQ

interaction score [1]: 1.49 | interaction score [2]: -0.756 | interaction score [3]: 1.32 | interaction score [4]: -0.708 | interaction score [5]: -1.13
Binder: DENQELEKKIEELKRKNWELKKEIQELER [P5A-bH]

Binder: SPEDENAALEEKIAQLKQKNAALKEEIQALEYG [P5]
interaction score [6]: 0.186 | interaction score [7]: -2.12 | interaction score [8]: -2.93 | interaction score [9]: -2.94 | interaction score [10]: 0.252 | interaction score [11]: -2.62 | interaction score [12]: -2.89 | interaction score [13]: -2.59 | interaction score [14]: 0.207 | interaction score [15]: -2.84 | interaction score [16]: -1.39 | interaction score [17]: 0.1 | interaction score [18]: -2.8

interaction score [19]: -1.7 | interaction score [20]: -0.744 | interaction score [21]: -0.843 | interaction score [22]: 0.00503 | interaction score [23]: -1.08 | interaction score [24]: 1.34 | interaction score [25]: -1.23 | interaction score [26]: -0.956 | interaction score [27]: 1.63 | interaction score [28]: 0.691 | interaction score [29]: -0.964 | interaction score [30]: 1.63 | interaction score [31]: -0.557 | interaction score [32]: 2.05 | interaction score [33]: -0.661 | interaction score [34]: -0.448 | interaction score [35]: -1.54 | interaction score [36]: 1.41 | interaction score [37]: 0.44 | interaction score [38]: -1.54 | interaction score [39]: -0.854 | interaction score ([40]; mean of both orientations): 1.51 | interaction score [41]: 0.899 | interaction score [42]: -1.27 | interaction score [43]: 1.48
Binder: DENAALKAKIAALKAENAALEAKIAALKG [4H1878-AA]

interaction score [44]: -0.336 | interaction score [45]: -0.336
Binder: DEIQQLEQKNQELKQKIQELKWENQELEQ [4H491-bN]

interaction score [20]: 0.453 | interaction score [22]: 0.862 | interaction score [23]: -1.42 | interaction score [46]: -1.9 | interaction score [24]: -1.83 | interaction score [47]: -0.293 | interaction score [48]: 0.365 | interaction score [26]: -1.62 | interaction score [27]: -1.21 | interaction score [49]: -1.29 | interaction score [50]: 1.8 | interaction score [32]: -0.536 | interaction score [34]: -1.85 | interaction score [51]: -1.16 | interaction score [52]: -1.12 | interaction score [38]: -1.61 | interaction score [53]: -1.02 | interaction score [54]: -0.535 | interaction score [39]: -2.69 | interaction score [40]: -0.87 | interaction score [55]: -0.832 | interaction score [42]: -0.0687 | interaction score [56]: -0.895
Binder: DENAALKAKIAALKAKNAALKAEIAALEG [4H1913-AA]

interaction score [57]: -0.153
Binder: DKNQQLKQKNQELKQEIQELEWKIQELKQ [4H4038-bN]

interaction score [58]: -1.38 | interaction score [1]: -2.06 | interaction score [2]: -0.412 | interaction score [3]: 0.0606 | interaction score [4]: -0.144 | interaction score [5]: -0.285
Binder: DKIQELKKKIEELKRENWELEKENQELER [P4A-bH]

interaction score [57]: -2.02 | interaction score [59]: -1.7 | interaction score [60]: -1.04 | interaction score [61]: -1.64
Binder: DKNQQLKQKIQELKQEIQELEWENQELEQ [4H3907-bN]
